Results reported in US20070078096A1, “Buffered drug formulations for transdermal electrotransport delivery” (priority 1997, published 2007).

Experiment: hGH stability in HEC gel at 32° C. (RP, SEC, IE HPLC)
Type: physicochemical
Details: for hGH remaining intact: HEC gel, 32° C., after 6 hours
Experimental: A sufficient quantity of His-Gly from BACHEM Bioscience was added to distilled water to make a 12.5 mM buffer solution having a pH of 6.75. A human growth hormone (hGH) formulation obtained from BresaGen contained growth hormone, mannitol and glycine in the following proportions: 1:5:1 (w/w). The original hGH formulation was subjected to purification (diafiltration against 12.5 mM His-Gly buffer to remove the mannitol and glycine) and the hGH concentration was adjusted to about 20 mg/ml via ultrafiltration.
Aliquots of 250 μl of the resulting hGH stock solution were placed into Eppendorf tubes, each containing 5 mg (2%) of hydroxyethyl cellulose (HEC) as a gelling agent and the samples were carefully mixed. After gelation, the samples were tested for stability at body temperature. The samples were warmed to 32° C. (ie, skin temperature) and assayed at 0, 1, 2, 3, 4, 5, and 6 hours to determine the percent of hGH remaining intact in the gel. hGH from the gels was extracted by dissolving the gel in 25 ml of His-Gly buffer. All hGH samples were analyzed by reverse-phase high performance liquid chromatography (RP), size-exclusion high performance liquid chromatography (SEC), and ion-exchange high performance liquid chromatography (IE) to determine percentage of intact hGH remaining (%LS in FIG. 9). The percent of hGH remaining was calculated by measuring the concentration of the hGH (as determined using one of three high performance liquid chromatography methods) and dividing that by the initial hGH concentration.
As a comparison, hGH stability studies were run under identical conditions to those described above, except histidine buffer was substituted for His-Gly.

[1] = His-Gly buffered hGH gel stored at 32° C.

**Q.** With “hGH: human growth hormone formulation obtained from BresaGen, diafiltered against buffer, about 20 mg/ml in 2% HEC gel” as the substance, how does the hGH remaining intact (His-Gly buffer 12.5 mM) read?
**A.** about 80%

**Q.** And the degradation products [1]?
**A.** No extra degradation products were discovered

**Q.** And the “loss of protein through degradation” value [1]?
**A.** no significant loss of protein through degradation

**Q.** What about the hGH remaining intact (histidine buffer) of the same substance?
**A.** approximately 50%
